Data as given in the nanobody polyreactivity screen of Harvey et al. (2022).

Assay: yeast display, Sf9 membrane polyspecificity reagent, FACS + sequencing; frameworks hold sequencing errors
Summary of the method: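 Using colony PCR, genes from sorted yeast display clones were amplified, then sequenced on MiSeq at 2 × 250 and filtered by CDR length. The clones had been stained with 10% biotinylated, detergent-solubilized Sf9 membrane reagent for 1 hour at 4 °C and sorted by FACS into low and high (top ~1%) gates on anti-HA and streptavidin fluorescence. Polyreactivity labels come from the gate of origin.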

Sequence	polyreactivity (PSR sort gate)
QVQLVESGGGLVQAGGSLRLICAASGSTFVPNAMGWYRQAPGKERELVAAITLSGVSTYYADSVKGRFTISRDNAKNTVYLQMNSLKPEETAVYYCAKDRPGWFHKYDYWGQGTQVTVSS	low polyreactivity
QVQLVESGGGLVQAGGSLRLICAASGSTFWRYAMGWYRQAPGKERELVAAITGNGGRTYYADSVKGRFTISRDNAKNTVYLQMNSLKPEDTAVYYCAARYRGGVSVGYWGQGTQVTVSS	high polyreactivity
QVQLVESGGGLVQAGGSLRLICAASGSTFWYYAMGWYRTAPGKDRELVAAITYGGGSTYYADSVKGRFTISRDNAKNTVYLQMNSLKPEDTAVYYCAAQSYDYWYDYDYWGQGTQVTVSS	high polyreactivity
QVQLVESGGGLVQAGGSLRLICAASGSTFWYYSMGWYRQAPGKERELVAAITRAGSTNYADSVKGRFTISRDNAKNTVYLQMNSLKPEDTAVYYCAADQYHYWYYLGGYDYWGQGTQVTVSS	high polyreactivity
QVQLVESGGGLVQAGGSLRLICAASGSTFYPYDMGWYRQSPGKEWELVATISSGVSTNYADSVKGRFTISRDNAKNTVYLQMNSLKPEDTAVYYCAVDYFIGDDDYWGQGTLVTVSS	low polyreactivity
QVQLVESGGGLVQAGGSLRLICAASGSTFYRNVMGWYRQAPGKERELVAAISSGGSTYYADSVKGRFTISRDNAKNTVYLQMNSLKPEDTAVYYCAARKRYSYDYWGQGTQVTVSS	low polyreactivity
QVQLVESGGGLVQAGGSLRLICAASGSTITLYAMGWYRQAPGKERELVAAISGIGDSTYYADSVKGRFTISRDNAKNTVYLQMNSLKPEDTAVYYCAADGEYRYDWEYESWGQGTQLTVSS	low polyreactivity
QVQLVESGGGLVQAGGSLRLICAASGSTLFTYAMVWYRQAPGKERELVAAITSSGSTYYADSVKGRFTISRDNAKNTVYLQMNSLKQEDTAVYYCAVPGYRYTNYYYWGQGTQVTVSS	low polyreactivity
QVQLVESGGGLVQAGGSLRLICAASGSTLYTYAMGWYRQAPGKERELVATISWSGSSTYYADSVKGRFTISRDNAKNTVYLQMNSLKPEDTAVYYCAAPYHYWYRLDYWGQGTQVTVSS	high polyreactivity
QVQLVESGGGLVQAGGSLRLICAASGTFYYYAMGWYRQAHGNERELVAAISTSDTSTYYADSVKGRFTISRDNAKNTVYLQMNSLKPEDTAVYYCAADTYHNFDYWGQGTQVSVSS	low polyreactivity
QVQLVESGGGLVQAGGSLRLICAASGTTFPRYAMGWYRKAPGKERELVAAITRSGANTHYADSVKGRFTIPRDNAKNTVYLQMTSLKPEDTAVYYCAARIYWGYGTRYYYWGQGTQVTVSS	high polyreactivity
QVQLVESGGGLVQAGGSLRLICAASGYIFRYYVMGWYRQAPGKERELVAAITGIDGSTYYADSVKGRFTISRDNAKNTVYLQMNSLKPEDTAVYYCAAVIGDSSYTFYYDMDYWGQGTQVTVSS	low polyreactivity
QVQLVESGGGLVQAGGSLRLICAASGYIFVRNAMGWYRQAPGKERELVAAISGSGGSTYYADSVKGRFTISRDNAKNTVYLQMNSLKPEDTAVYYSAADYATVTWRGIAYDYWGQGTQVTVSS	low polyreactivity
QVQLVESGGGLVQAGGSLRLICAASGYTFDYNAMGWYRQAPGKEREFVAAIDWSGGNTYYADSVKGRFTISRDNAKNTVYLQMNSLKPEDTAVYYCNTVTEAVTRRYDYWGQGTQVTVSS	low polyreactivity
QVQLVESGGGLVQAGGSLRLICAASGYTFRGNAMGRYRPAPGKERELVAAISGSGTRTYYADSVKGRFTISRDNAKNTVYLQMNSLKPEDTAVYYCNAKSLYHYHSADFDYWGQGTQVTVSS	high polyreactivity
QVQLVESGGGLVQAGGSLRLICAASGYTFSDYAMGLYRQAPGKERELVAVISQSGGSTYYADSVKGRFTISRDNAKNTVYLQMNSLKPEDTAVYDCNVYPSRRRAVGESERYYWGQGTQVTVSS	high polyreactivity
QVQLVESGGGLVQAGGSLRLICAASGYTLGPYAMGWYRQAPGKERELVAAITSGGSTYYADSVKGRFPISRDNAKHTVYLQMNSLKPEDSAVYYCNKDKGWLAHSRIWLWYDYWGQGTQVTVSS	low polyreactivity
QVQLVESGGGLVQAGGSLRLICAASRGIFGQYVMGWYRQAPGKERELVAPISSGGNTYADSVKGRFTISRDNAKNTVYLHMNSLKPEDTAVYYCAAPLTGIVEYDYWGQGTQVTVSS	low polyreactivity
QVQLVESGGGLVQAGGSLRLICADYGRTFKWYAMGWYRQAPGKERELVAVITGLGGSTYYADSVKGRFTISRDNAKNTVYLQMKSLKPEDTAVYYCAARGYSHVASRLYYYWGQGNQVTVSS	high polyreactivity
QVQLVESGGGLVQAGGSLRLICAGSGSNFSYYAMGWYRQAPGKERELVAAITWSGGTTSYADSVKGRFTISRDNAKNTVYLQMNSLKPEDSAVNYFARSIYVVSAQYDYWGQGTQVTVSS	low polyreactivity
QVQLVESGGGLVQAGGSLRLICPASGITFVYYAMVWYRQSPGKEMELVATNTKSGVSTYYADSVKGRFTISRDNAKNTVYLQMNSLKPEDTAVYYCAKEVSYRFYWTYDYWGQGTKVTVSS	low polyreactivity

Sequence	polyreactivity (PSR sort gate)
QVQLVESGGGLVQAGGSLRLIFAASGRTFFSYVMGWYIQAPGKERELVAAITWRGGSTYYADSVKGRFTISRDNAKNTVYLQMNSLKPEDTAVYYCAAPSHGSTSDRYYKFYYWGQGTQVTVSS	high polyreactivity
QVQLVESGGGLVQAGGSLRLISAASGFIFKIYAMGWHRQAPGKERDLVAAISSGDNTNYADSVKGRFTISRDNAKNTVYLQMNSLKPEDTAVYYCADRAYRWRSFSTMYYWGQGTQVTVSS	high polyreactivity
QVQLVESGGGLVQAGGSLRLISAASGGISSLNAMGWYSQAPGKERELVAAIDWIGGSTYYADSVKGRFTISRDTAKNTVYLQKNSLKPEDTAVYYCGKRGVYGDRYYYWGQGTQVTVSS	high polyreactivity
QVQLVESGGGLVQAGGSLRLISAASGLIFKWYGMVWYRQAPGKEREFVAAITSSGTSTYYADSVKGRFTISRDNAKNTVDLHMNSLKPEDTAVYYCNARTKHRYEYDYWGQGTQVTVSS	high polyreactivity
QVQLVESGGGLVQAGGSLRLISAASGSIFERYAMGWYRQAPGKERELVAAITWTGGSTYYADSVKGRFTISRDNAKNTVYLQMNSLKPEDTAVYYCAADYLYPLWGWYDYWGQGTQVTVSS	low polyreactivity
QVQLVESGGGLVQAGGSLRLISAASGSIFYRNAMGWYRQAPGKERDLVAAISSDGSTNYADSVKGRFTISRDNAKNTVYLQMNSLKPEDTAVYYCAAPWTQILDFWGQGTQVTVSS	low polyreactivity
QVQLVESGGGLVQAGGSLRLISAASGSSFSSYAMGWYRQAPGKERDLVAAISWRGGSTYYADSVKGRFTISRDNAKNTVYLQMNSLKTEDTAVYFCAKLVRGVGTEMYYWGQGTQVTVSS	high polyreactivity
QVQLVESGGGLVQAGGSLRLLCAASGSTIVTNAMGWYRQAPGKERELVAAITSSDGITYYADSVKGRFTISRDNAKNTVYLQMNSLKPEDTAVYYCAAELVSVRYLYALHDRDYWGQGTQVTVSS	low polyreactivity
QVQLVESGGGLVQAGGSLRLNCAASGGIFRGYAMVWYRQAPGKERELVATITYSGTSTYYADSVKGRFTISRDYAKNTVYLQMNSLKPEYTAVYYCNADWWFKYDYWGQGTQVTVSS	low polyreactivity
QVQLVESGGGLVQAGGSLRLNCAASGRSFQSYAMGWYRTAPGKERELVAAITWSGGDTYYADSVKGRFTISRDNAKNTVYLQMNSLKPEDTAVYYCAKEQGLYSVSPYDYWGQGTQVTVSS	low polyreactivity
QVQLVESGGGLVQAGGSLRLNCAASGRTLVLYVMGWYRQAPGKERELVAAISRSGGRTYYADSVKGRFTISRDNAKNTVYLQMNSLKPEDTAVYYCAAYTSYASDYWGQGTLVTVSS	high polyreactivity
QVQLVESGGGLVQAGGSLRLNCAASGSIFDDYAMGWYRQAPGKERELVAAINIRTGSTYYADSVKGRFTISRDNAKNTVYLQMHSLKPEDTEVYYCNRVVRGFVRHLDYWGQGTQVTVSS	low polyreactivity
QVQLVESGGGLVQAGGSLRLRCAASGFIFRWYAMGWYRQAPGKERELVARISNGGSTYYADSVKGRFTISRDNAKKTVYLQMNSLKPEDTAVYYCAARLPYGYYSAGYYYWGQGTQVTVSS	high polyreactivity
QVQLVESGGGLVQAGGSLRLRCAASGFILYPYAMGWYRQAPGKERELVAAITSRGGRTYYADSVKGRFTISRDKAKHSVYFQMNSLKPEDTAVFYCAAKRTCNYAPLKYYSWGQGTQVTVSS	high polyreactivity
QVQLVESGGGLVQAGGSLRLRCAASGFTFRYYAMGWYRQAPGKERELVASTYYADSVKGRFTISRDNAKNTVYLQMNSLKPEDTAVYYCNVDGTSSSPFVQKHKEMDYWGQGTQVTVSS	low polyreactivity
QVQLVESGGGLVQAGGSLRLRCAASGFTFYHYAMGWYRQAPGKERELVAAITWSGGDTYYADSVKGRFTISRDNAKNTVYLQMNSLKPEDTAVYYCNADDPPGAPYYDSFDYRGDYWGQGTQVTVSS	low polyreactivity
QVQLVESGGGLVQAGGSLRLRCAASGFTIWPYAMGWYRQAPGKERELVAGITRKGGSTYYADSVKGRFTISRDNAKNTVYLQMNSLKPEDTAVYYCNTKYAVEIDYWGQGTQVTVSS	low polyreactivity
QVQLVESGGGLVQAGGSLRLRCAASGFTLRLYTMAWYRQAPGQERELVAAINKRGGSTYYADSVKGRFTISRDNAKNSVYLQMISLKPEDTAVYYCANVPGYKAYEYDYWGQGTQVTVSS	high polyreactivity
QVQLVESGGGLVQAGGSLRLRCAASGINFGYYAMGWYRQAPGKERELVAAITSGASTDYADSVKGRFTISRDNAKNTVYLQMNSLKPEDTAVYYCNADTSASTYTFPFDYCGQGTQVTVSS	low polyreactivity
QVQLVESGGGLVQAGGSLRLRCAASGLTFRYYAMGWYRQAPGKERELVAAISRTGRTNYSDSVKGRFTISRDNAKNTVYLQMNSLKPEDTAVYYCAATGIYAKALLWYDYWGQGTQVTVSS	high polyreactivity
